Substitutions are numbered along the chain they refer to. Names and notes keep the numbering of the source.
B1: Humanized muAb9 #1 (antibody, V domains shown)
VH: EVQLQESGPGLVKPSETLSLTCTVSGYSITSNYYWNWIRQPPGKGLEWMGYIRYDGSNNYNPSLKNRITISRDTSKNQFSLKLSSVTAADTAVYYCARLDYWGQGTTVTVSS
VL: DAVMTQTPLSLSVTPGQPASISCRSSQSLENTNGNTFLNWFLQKPGQSPQLLIYRVSNRFSGVPDRFSGSGSGTDFTLKISRVEAEDVGVYFCLQVTHVPFTFGQGTKLEIK
B2: Humanized muAb9 #6 (antibody, V domains shown)
VH: B1 VH with T30S, N66S, I68V
VL: B1 VL with F41Y, F92Y
B3: Humanized muAb9 #2 (antibody, V domains shown)
VH: B1 VH with I68V
VL: B1 VL
B4: Humanized muAb9 #4 (antibody, V domains shown)
VH: B1 VH
VL: B1 VL with F41Y, F92Y
B5: Humanized muAb9 #3 (antibody, V domains shown)
VH: B1 VH with T30S, N66S, I68V
VL: B1 VL
B6: Humanized muAb6 #1 (antibody, V domains shown)
VH: EVQLVQSGAEVKKPGSSVKVSCKASGYTFTSYWMHWVRQAPGQGLEWIGNIDPSNGETHYNQKFKDRATLTVDKSTSTAYMELSSLRSEDTAVYYCARERIYYSGSTYDGYFDVWGQGTTVTVSS
VL: DIQLTQSPSFLSASVGDRVTITCSASSSLSYMHWYQQKPGKSPKRWIYDTSKLASGVPSRFSGSGSGTEYTLTISSLQPEDFATYYCQQWSSNPWTFGGGTKVEIK
B7: Humanized muAb6 #3 (antibody, V domains shown)
VH: B6 VH with N61A, K65Q, D66G, A68V, L70I
VL: B6 VL
B8: Humanized muAb6 #2 (antibody, V domains shown)
VH: B6 VH with A68V, L70I
VL: B6 VL
B9: AD163.9.3 (antibody, V domains shown)
VH: QVQLQQPGAELVKPGASVKMSCKASGYTFTSYWITWVKQRPGQGLEWIGEINPGSGSTNYNEKFKSKATLTVDTSSSTAYMQLSSLTSEDSAVYYCARNRGTGDYWGQGTTLTVSS
VL: DVVMTQTPLSLPVSLGDQASISCRSSQSLVHSYGNTYLHWYLQKPGQSPKFLIYKVSNRISGVPDRLSGSGSGTDFTLKISRVEPEDLGVYFCSQSTHVPYTFGGGTKLEIK
notes: mouse hybridoma monoclonal; also called muAb1
B10: AD166.4.4 (antibody, V domains shown)
VH: QVQLQQSGAELMKPGASAKLSCKATGYTFTGYWIQWVKQRPGHGLEWIGEILPGGDHTKYNEKFRGKATFTSDTSSNTVYMQLSSLTTEDSAIYYCARVGGDYWGQGTTLTVSS
VL: B9 VL with H31N, Y33N, G34E, F51L, S57F, I60Y, L67F, P85A, S94F, Y101W
notes: mouse hybridoma monoclonal; also called muAb2
B11: AD163.7.2 (antibody, V domains shown)
VH: QVQLQQSGPELVKSGASVKISCKASGYTFTDYYINWVKQRPGQGLEWIGWIFPGSGSVYCNEQFKGQATLTVDRSSSTAYMLLSSLTSEDSAVYFCASSLGKFAYWGQGTLVTVSA
VL: DIVMTQSQKFMSTTVGDRVSITCKASQSVVTAVAWYQQKPGQSPKLLIYSASNRYTGVPDRFTGSGSGTDFALTIRTMQSEDLADYFCQQYSSYPYTFGGGTKLEIK
notes: mouse hybridoma monoclonal; also called muAb8
B12: AD163.10.7 (antibody, V domains shown)
VH: LVQPGGSLSLSCAASGFTFSDYYMSWVRQPPGKALEWLGFIRNKANGYTTEFSASVKGRFTISRDNSQSILYLQMNALRAEDSATYYCARYGGLRQGWYFDVWGTGTTVTVSS
VL: DIQMTQTTSSLSASLGDRVTISCRASQDIRNYLNWYQQKPDGTVKLLIYYTSRLHSGVPSRFSGSGSGTDYSLTISNLEQEDIATYFCQQGKTLPWTFGGGSKLEMK
notes: mouse hybridoma monoclonal; also called muAb4
B13: AD175.14.11 (antibody, V domains shown)
VH: EVQLQQSGPELVKPGASVKISCKASGYTFTDYYMNWVKQSHGKSLEWIGDINPNNGGTSYNQKFKGKATLTVDKSSSTAYMELRSLTSEDSAVYYCARRGGLGRGTYALDYWGQGTSVTVSS
VL: B12 VL with R30S, L46P, S56L, K92N, W96L, G100A, S102T, M106L
notes: mouse hybridoma monoclonal; also called muAb3
B14: AD165.1.2 (antibody, V domains shown)
VH: DVQLQESGPGLVEPSQSLFLTCSVTGYSITTNYNWNWIRQFPGNKLEWMGYIRHDGTNNYNPSLKNRISIIRDTPKNQFFLKLNSVTTEDTAIYFCTRLDYWGQGTSVTVSS
VL: DAVMTQTPLSLPVSLGDQASISCRSSQSLENSYGNTFLNWFLQRPGQSPQLLIYRVSNRFCGVPDRFSGSGSGTDFTLKISRVEAEDLGIYFCLQVTHVPYTFGGGTKLEIK
notes: mouse hybridoma monoclonal; also called muAb5
B15: AD164.76.3 (antibody, V domains shown)
VH: DVQLQESGPGLVKPSQSLSLTCSVTGYSITSNYYWNWIRQFPGNKLEWMGYIRYDGSNNYNPSLKNRISITRDTSKNQFFLRLNSVTTEDTATYYCTRLDYWGQGTTLTVSS
VL: B14 VL with Y33N, R44K, V56I, C61S, I90V, Y101F, G105S
notes: mouse hybridoma monoclonal; also called muAb10
B16: AD164.14.6 (antibody, V domains shown)
VH: B15 VH with R82K, T97A
VL: B14 VL with S32T, Y33N, R44K, C61S, I90V, Y101F, G105S
notes: mouse hybridoma monoclonal; also called muAb9
B17: AD163.162.1 (antibody, V domains shown)
VH: QVQLQQPGAELVRPGSSVKLSCKASGYTFTSYWMHWVKQRPIQGLEWIGNIDPSNGETHYNQKFKDKATLTVDKSSSTAYMQLSSLTSEDSAVYYCARERIYYSGSTYDGYFDVWGTGTTVTVSS
VL: QIVLTQSPAIMSASPGEKVTMTCSASSSLSYMHWYQQKSGTSPKRWIYDTSKLASGVPARFSGSGSGTSYSLTISSMEAEDAATYYCQQWSSNPWTFGGGTKLEIK
notes: mouse hybridoma monoclonal; also called muAb6
B18: AD163.27.12 (antibody, V domains shown)
VH: B17 VH
VL: B17 VL with A79G, A82G
notes: mouse hybridoma monoclonal; same VH as muAb6; also called muAb7
B19: Humanized muAb9 A2V (antibody, human IgG1, kappa)
heavy: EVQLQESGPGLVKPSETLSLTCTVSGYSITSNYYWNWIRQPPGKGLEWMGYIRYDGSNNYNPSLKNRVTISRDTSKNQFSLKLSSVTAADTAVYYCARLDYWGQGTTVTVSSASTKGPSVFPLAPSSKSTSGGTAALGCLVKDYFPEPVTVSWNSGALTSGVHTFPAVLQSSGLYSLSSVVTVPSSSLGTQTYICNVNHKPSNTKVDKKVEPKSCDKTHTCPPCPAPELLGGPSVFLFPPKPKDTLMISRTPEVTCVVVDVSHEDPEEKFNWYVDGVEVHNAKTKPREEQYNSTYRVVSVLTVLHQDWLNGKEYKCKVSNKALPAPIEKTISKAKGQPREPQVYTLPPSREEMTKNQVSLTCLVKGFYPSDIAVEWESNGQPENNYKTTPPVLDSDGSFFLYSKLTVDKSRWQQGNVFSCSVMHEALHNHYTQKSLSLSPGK
light: DVVMTQTPLSLSVTPGQPASISCRSSQSLENTNGNTFLNWYLQKPGQSPQLLIYRVSNRFSGVPDRFSGSGSGTDFTLKISRVEAEDVGVYYCLQVTHVPFTFGQGTKLEIKRTVAAPSVFIFPPSDEQLKSGTASVVCLLNNFYPREAKVQWKVDNALQSGNSQESVTEQDSKDSTYSLSSTLTLSKADYEKHKVYACEVTHQGLSSPVTKSFNRGEC
notes: human IgG1 V273E/kappa; also called huAb9 A2V
B20: CP-870,893 (antibody, human IgG2, kappa, V domains shown)
VH: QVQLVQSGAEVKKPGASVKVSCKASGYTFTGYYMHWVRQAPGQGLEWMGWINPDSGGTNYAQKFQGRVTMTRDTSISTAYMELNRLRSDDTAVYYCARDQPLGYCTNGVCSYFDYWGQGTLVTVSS
VL: DIQMTQSPSSVSASVGDRVTITCRASQGIYSWLAWYQQKPGKAPNLLIYTASTLQSGVPSRFSGSGSGTDFTLTISSLQPEDFATYYCQQANIFPLTFGGGTKVEIKR

These binders were tested against T1, human CD40 on cells (human, UniProt P25942 21-277) (assay: cell-based or functional assay).
T1 sequence (P25942 21-277 limits assumed): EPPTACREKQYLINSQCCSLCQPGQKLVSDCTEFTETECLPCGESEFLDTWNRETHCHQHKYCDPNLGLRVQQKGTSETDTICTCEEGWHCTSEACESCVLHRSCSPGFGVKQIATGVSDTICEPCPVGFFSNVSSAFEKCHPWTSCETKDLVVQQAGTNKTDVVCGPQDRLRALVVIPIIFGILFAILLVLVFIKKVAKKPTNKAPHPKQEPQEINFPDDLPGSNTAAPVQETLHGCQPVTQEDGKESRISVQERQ
For moDC activation (IL-12p70, pg/mL) in this document: test concentration or dose not given here.

Maximal activation (OD655) in HEK293 blue CD40 NFκB reporter cells [OD655] | NFκB activation EC50 (SEAP, OD655) in HEK293 blue CD40 NFκB reporter cells [µg/mL] | Binder
0.26 | 0.19 | B1
0.54 | 5.95 | B2
0.27 | 0.29 | B3
0.61 | 5.55 | B4
0.27 | 0.18 | B5
0.26 | 1.09 | B6
0.32 | 4.31 | B7
0.2 | 1.21 | B8

Biological target: T1, human CD40 on cells
Experiment: cell-based or functional assay
Remark: another data set of the same source

moDC activation (IL-12p70, pg/mL) [pg/mL] | Binder
2220 | B9
0 | B10
905 | B11
1320 | B12
0 | B13
720 | B14
770 | B15
878 | B16
2160 | B17
1510 | B18

The binders below were run against T2, CD40-human Fc (huFc) fusion protein (Creative BioMart) (human, UniProt P25942 21-193) (assay: ELISA: CD40-huFc mixed with antibody, binding to plate-bound HA-tagged CD40L; also: test concentration or dose not given here).
T2 construct: bought; also called CD40-huFc; not shown: human Fc
T2 sequence (P25942 21-193 limits assumed): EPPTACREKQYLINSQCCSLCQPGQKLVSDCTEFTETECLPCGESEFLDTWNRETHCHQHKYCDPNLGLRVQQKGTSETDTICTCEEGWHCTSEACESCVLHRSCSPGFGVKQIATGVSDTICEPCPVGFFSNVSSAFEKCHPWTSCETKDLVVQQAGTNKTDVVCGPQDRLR
From the text: After development with TMB (3, 3′, 5, 5′-tetramethylbenzidine) substrate, the plates were read at OD₄₅₀.

OD450 Ratio | OD450 with anti-CD40 antibody [OD450] | Binder
2.22 ratio to isotype control | 1.78 | B9
1.28 ratio to isotype control | 1.02 | B10
0.08 ratio to isotype control | 0.066 | B11
1.68 ratio to isotype control | 1.34 | B12
0.09 ratio to isotype control | 0.068 | B13
1.24 ratio to isotype control | 0.989 | B14
2.63 ratio to isotype control | 2.11 | B15
2.35 ratio to isotype control | 1.88 | B16
0.57 ratio to isotype control | 0.455 | B17
0.41 ratio to isotype control | 0.328 | B18

What follows are binders tested against soluble form of the extracellular domain of human CD40 (Creative BioMart, cat #CD402221H) (human, UniProt P25942 21-193) (assay: SPR (BIAcore T200); antibody captured by anti-Fc; soluble CD40 injected).
soluble form of the extracellular domain of human CD40 (Creative BioMart, cat #CD402221H), sequence (P25942 21-193 limits assumed): as above
Procedure: (§1) CD40 binding kinetics was analyzed by BIAcore assay with a BIAcore T200 instrument. Briefly, a goat anti-mouse Fc antibody (Pierce, cat #31170) or goat anti-human Fc (Pierce, cat #31125) was immobilized on a CM5 sensor chip, followed by capture of the anti-CD40 antibodies on the test surface.

Kd [nM] | koff [s⁻¹] | kon [M⁻¹ s⁻¹] | Binder
170 | 0.26 | 1.5e+06 | B19

Each binder was assayed against T3, soluble cynomolgus (cyno) CD40 (Creative BioMart, cat #CD40-8824C) (cynomolgus, UniProt G7PG38 21-193) in the same assay as above.
T3 construct: extracellular domain; also called Cynomolgus CD40
Procedure: as §1

Kd [nM] | koff [s⁻¹] | kon [M⁻¹ s⁻¹] | Binder
140 | 0.27 | 1.9e+06 | B19

Biological target: T1, human CD40 on cells
Experiment: cell-based or functional assay
Remark: another data set of the same source

NFκB activity EC50; HEK293 blue CD40 reporter cells co-cultured with CHO cells expressing CD16F [nM] | NFκB activity EC50; HEK293 blue CD40 reporter cells co-cultured with CHO cells expressing CD16V [nM] | NFκB activity EC50; HEK293 blue CD40 reporter cells co-cultured with CHO cells expressing CD32a [nM] | NFκB activity EC50; HEK293 blue CD40 reporter cells co-cultured with CHO cells expressing CD32b [nM] | NFκB activity EC50; HEK293 blue CD40 reporter cells co-cultured with CHO cells expressing CD64 [nM] | NFκB activity EC50; HEK293 blue CD40 reporter cells co-cultured with FcγR negative CHO cells [nM] | Binder
0.03 | 0.02 | 0.02 | 0.02 | 0.02 | 0.03 | B20
